# Measured values taken from patent US20220195059A1, “Rank Pathway Inhibitors in Combination with CDK Inhibitors” (INSTITUTO DE MEDICINA MOLECULAR JOÃO LOBO ANTUNES, priority 2019, published 2022).
# B1: sRANKL: soluble RANK ligand used as stimulus (protein)
# chain: EKAMVDGSWLDLAKRSKLEAQPFAHLTINATDIPSGSHKVSLSSWYHDRGWAKISNMTFSNGKLIVNQDGFYYLYANICFRHHETSGDLATEYLQLMVYVTKTSIKIPSSHTLMKGGSTKYWSGNSEFHFYSINVGGFFKLRSGEEISIEVSNPSLLDPDQDATYFGAFKVRDID
# Experiments:
# [1] = tested on: MCF-7 RANK OE xenografts; test: MCF-7^OE orthotopic xenograft growth with exogenous sRANKL; assay type: in vivo, NSG mice; conditions: human sRANKL 0.5 mg/every 48 h s.c. vs vehicle; eight weeks
# Experimental: Nod scid gamma (NSG) mice were inoculated in the 2nd thoracic mammary fat pad with MCF-7 RANK OE GFP+Luc+ (RANK OE) cells (n=3-4/group). Mice were treated with human sRANKL 0.5 mg/every 48 h s.c. or vehicle (PBS). Tumors were imaged by bioluminescence every week post tumor inoculation untill the end of the experience (eight weeks). FIG. 10A is a graph of the total flux (p/s) measured at the end of experiment. FIG. 10B is a graph of tumor weight at the time of sacrifice for tumors derived from MCF-7 OE cells taken from mice treated with (+) or without (−) sRANKL. FIG. 10C is a graph of the Ki67-positive stained cells from tumors derived from MCF-7 OE cells taken from mice treated with (+) or without (−) sRANKL. Data is presented as mean±SEM. p-value was calculated using 2-way ANOVA or unpaired t-test, *p<0.05, **p<0.01, ***p<0.001.
# Tumor growth was monitored weekly by luminescence analysis.
# To determine whether the decreased proliferation rate was due to RANKL availability, NSG mice were inoculated with one of Parental, RANK OE, or Mix cells, as described above, and treated with human soluble RANKL or vehicle control subcutaneously.
# [2] = tested on: RANKL-driven RANK pathway activation (ERK, AKT phosphorylation); test: RANKL stimulation and RANKL neutralization, western blot; assay type: cell-based, human; conditions: 1 μg/ml RANKL; serum starved cells
# Experimental: It was also confirmed that OPG-Fc is able to neutralize RANKL. Protein expression was assessed by western blot. Cells were seeded in 6-well plates, serum starved for 24 h, and exposed to 1 μg/ml RANKL for the indicated time points (FIG. 26A). For RANKL neutralization (FIG. 26B), RANKL was previously incubated for 60 min at 37° C. in serum-depleted medium±100 ng/ml OPG-Fc or 2.5 μg/ml MAB626, and proteins analyzed after 60 min. β-Actin was used as loading control and band intensity was quantified using FiJi. […] In the presence of OPG-Fc or the anti-RANKL monoclonal antibody MAB626, RANKL-driven RANK pathway activation was decreased (FIG. 26B).
# (§1) For this purpose, 4×10^5 cells were seeded in 6-well plates for 24 h, and serum-starved in low-serum medium (0,1% FBS, 1% Pen/Step) for another 24 h. […] Total protein was quantified using Pierce BCA Protein Assay Kit (ThermoSicentific), according to manufacturer's instructions. […]
# (§2) Membranes were blocked for 1 h at room temperature (RT) in 5% Non-Fat Dry Milk (NFDM) in PBS-0.1% Tween (PBST) for β-actin; or in 5% bovine serum albumin (BSA) (Santa Cruz) for other antibodies. […] Proteins were detected using a Novex® ECL HRP chemiluminescent substrate reagent kit (Invitrogen) according to the manufacturer's instructions, and x-ray films (Fujifilm) developed in a Curix 60 processor (AGFA), or the Amersham™ Imager 680 (GE Healthcare Life Sciences).
# [3] = tested on: phosphorylation of IkBα, NFkB, ERK and AKT in MCF-7 OE and T47D OE cells; test: RANK signalling after sRANKL stimulation of RANK OE cells, western blot; assay type: cell-based, human; conditions: 1 μg/mL sRANKL
# Experimental: FIG. 1C provides data that show the activation of RANK signaling pathway. After 24 h in low-serum medium, MCF-7 and T47D cells, or their RANK-overexpressing counterparts MCF-7^OE and T47D^OE, were stimulated with 1 μg/mL soluble RANK ligand (sRANKL) for 0, 5, 10, 20, 40, or 60 min (top panel) or 0, 5, 10, or 25 min (bottom panel). Cell lysates were western blotted using the antibody specific for the indicated protein (IκBα; NK-κB p65; ERK1/2; AKT), or for a phosphorylated version thereof (p-IκBα (Ser32); p-NK-κB p65 (Ser536); p-ERK1/2; p-AKT). β-Actin was used as loading control.
# as §1
# as §2, with “Sciences). […]” for “Sciences).”
molecule,measurement,setting,value
B1,tumor growth,[1],did not affect
same,"phosphorylation of RANK-downstream factors, like ERK and AKT",[2],drives the phosphorylation
same,RANK pathway activity after stimulation,[3],increased RANK pathway activity
